{"source": "the nanobody polyreactivity screen of Harvey et al. (2022)"}
{"assay": "yeast display, Sf9 membrane polyspecificity reagent, FACS + sequencing; frameworks hold sequencing errors", "outline": "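Genes from sorted yeast were amplified by colony PCR, read by MiSeq 2 × 250 sequencing and filtered on CDR length. These cells carried a synthetic nanobody library in Saccharomyces cerevisiae BJ5465 and were sorted by FACS into low and high (top ~1%) gates on anti-HA and streptavidin fluorescence. Polyreactivity is labelled according to the gate of origin.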"}
{"sequence": "QVQLVESGGGLVQAGGSLRLISAASGITFDYYAIGWSRQAPGKERELVAAITNDGRTYYADSVKGRFTISRDNAKNTVYLQMNSLKPEDTAVYYCARLTFREYDYWGQGTQVTVSS", "polyreactivity (PSR sort gate)": "low polyreactivity"}
{"sequence": "QVQLVESGGGLVQAGGSLRLISPASRFTFRYYAMGWYRQAPGKERELVAAISRGGTTNYADSVKGRFTISRDNAKNTVYLQMNSLKPEDTAVYYCATTRYDYWGQGTQVTVSS", "polyreactivity (PSR sort gate)": "high polyreactivity"}
{"sequence": "QVQLVESGGGLVQAGGSLRLNCAASGLIFSNNAMGWYRQAHRKERDLVAAITSSGSRTYYADSVKGRFTISRDNAQITVYLQMNSLKPEDTAVYYCAAYEVPYQRRYGYWGQGTQVTVSS", "polyreactivity (PSR sort gate)": "high polyreactivity"}
{"sequence": "QVQLVESGGGLVQAGGSLRLNCAASGRIFVGNTMGWDRQAPGKERELVAAITVRGGSTYYADSVKGRFTISRDNAKNTVYLQMNSLKPEDTAVYYCAARRRIFPPRFGYWGQGTQVTVSS", "polyreactivity (PSR sort gate)": "high polyreactivity"}
{"sequence": "QVQLVESGGGLVQAGGSLRLRCAASGFTFRYYALAWYRPAPGKERELVAAISGSGGSTYYADSVKGRFTISRDNAKNTVYLQMNSLKPEDTAVYYCNALSARSRLQSDYWGQGTQVTVSS", "polyreactivity (PSR sort gate)": "high polyreactivity"}
{"sequence": "QVQLVESGGGLVQAGGSLRLRCAASGFTFTAYAMGWYRQAPGKERELVAAITWRDGITYYADSVKGRFTISRDNAKNTVYLQMNSLKPEDTADYYCAASWSTEYYWGQGTQVTVSS", "polyreactivity (PSR sort gate)": "high polyreactivity"}
{"sequence": "QVQLVESGGGLVQAGGSLRLRCAASGFTIGYNVMGLYRQAPGKERELVATISWNGARTYYADSVKGRFTISRDNAKNTVYLQMNSLKPEDTAVYYCAARRYYRGEYDYWGQGTQVTVSS", "polyreactivity (PSR sort gate)": "low polyreactivity"}
{"sequence": "QVQLVESGGGLVQAGGSLRLRCAASGFTLLWNSMGWYRQAPGKEREFVAVISSGGSTNYADSVKGRFTISRDNAKNTVYLQMNSLKPEDTAVYYCATRRPSSSSAAAWFYYWGQGTQVTVSS", "polyreactivity (PSR sort gate)": "low polyreactivity"}
{"sequence": "QVQLVESGGGLVQAGGSLRLRCAASGGTFNVYAMGWYRQAPGKERELVARITWNGGRTSYADSVKGRFTISRDNAKNTVYLQMNSLKPEDTAVYFCAAETRYKRIYPYGRATEDYWGQGTQVTVSS", "polyreactivity (PSR sort gate)": "high polyreactivity"}
{"sequence": "QVQLVESGGGLVQAGGSLRLRCAASGIIFSYYAMGLSRQAPGKERELFAAISSSGSTNYADSVKGRFTISRDNAKNTVYLQMNSLKPEDTAVYYCNAGYGRRVYVYSFKLRYNYWGQGTQVTVSS", "polyreactivity (PSR sort gate)": "high polyreactivity"}
{"sequence": "QVQLVESGGGLVQAGGSLRLRCAASGITFRNYAMGWYRQAPGKEMEFVATISRRAGSTYYADSVKGRFTISRDNAKNTVYLQMNRLKPEDTAVYYCAVRPSYVYFLGARYDYWGQGTQVTVSS", "polyreactivity (PSR sort gate)": "high polyreactivity"}
{"sequence": "QVQLVESGGGLVQAGGSLRLRCAASGITFSRNAMGAYRQAPGKERELVATITSGGSTNYADSVKGRFTISRDNAKNTVYLQMNSLKPEDTAVYYCNADWNTFISGRSYDYWGQGTQVTVSS", "polyreactivity (PSR sort gate)": "low polyreactivity"}
{"sequence": "QVQLVESGGGLVQAGGSLRLRCAASGLTFTGNAMGWYRQAPGKEREFVAAIRWSAGSTYYADSVKARFTISRDNAKNTVYLHMNSLKPEDTAVYYCKAALNVSGHYTNDSWGQGTQVTLSS", "polyreactivity (PSR sort gate)": "low polyreactivity"}
{"sequence": "QVQLVESGGGLVQAGGSLRLRCAASGLTFVDNAMGWYSQAPGKERELVAAITKRGGRTYYADSVKGRFTISRDNAKNTVYLQMNSLKPEDPAVYYCARDSGNDSSRRLDYWGQGTQVTVSS", "polyreactivity (PSR sort gate)": "low polyreactivity"}
{"sequence": "QVQLVESGGGLVQAGGSLRLRCAASGNIFYGNAMGWYRQAPGKERELVAGITSGGSTNYADSVKGRFTISRDNAKNTVYLQMNSLKPEDTAVYYCNATSSGSIFGYDYWGQGTQVTVSS", "polyreactivity (PSR sort gate)": "low polyreactivity"}
{"sequence": "QVQLVESGGGLVQAGGSLRLRCAASGRIFGFYAMGWYRQAPGKERELVAAITSSAGRTRYADSVKGRFTISRDNAKNTVYLQMNSLKPEDTAVYYCAARTVGRKAGFDYWGQGTQVTVSS", "polyreactivity (PSR sort gate)": "high polyreactivity"}
{"sequence": "QVQLVESGGGLVQAGGSLRLRCAASGRIFRLYAMGWYRQAPGKERELVAAIRSSGGSTYADSVKGRFTISRDNAKNTVYLHMNSLKPEDTAVYYCAARWGRLPEQYRYDYWGQGTQVTVSS", "polyreactivity (PSR sort gate)": "high polyreactivity"}
